Laboratory results published in article PMC3406708.

Biological target: integrin α2β1 on human platelets (human (endogenous in platelets)) (UniProt P17301)
Test: flow cytometry on cells

Sequence of UniProt P17301 (P17301 30-1181, chain 1 of 2): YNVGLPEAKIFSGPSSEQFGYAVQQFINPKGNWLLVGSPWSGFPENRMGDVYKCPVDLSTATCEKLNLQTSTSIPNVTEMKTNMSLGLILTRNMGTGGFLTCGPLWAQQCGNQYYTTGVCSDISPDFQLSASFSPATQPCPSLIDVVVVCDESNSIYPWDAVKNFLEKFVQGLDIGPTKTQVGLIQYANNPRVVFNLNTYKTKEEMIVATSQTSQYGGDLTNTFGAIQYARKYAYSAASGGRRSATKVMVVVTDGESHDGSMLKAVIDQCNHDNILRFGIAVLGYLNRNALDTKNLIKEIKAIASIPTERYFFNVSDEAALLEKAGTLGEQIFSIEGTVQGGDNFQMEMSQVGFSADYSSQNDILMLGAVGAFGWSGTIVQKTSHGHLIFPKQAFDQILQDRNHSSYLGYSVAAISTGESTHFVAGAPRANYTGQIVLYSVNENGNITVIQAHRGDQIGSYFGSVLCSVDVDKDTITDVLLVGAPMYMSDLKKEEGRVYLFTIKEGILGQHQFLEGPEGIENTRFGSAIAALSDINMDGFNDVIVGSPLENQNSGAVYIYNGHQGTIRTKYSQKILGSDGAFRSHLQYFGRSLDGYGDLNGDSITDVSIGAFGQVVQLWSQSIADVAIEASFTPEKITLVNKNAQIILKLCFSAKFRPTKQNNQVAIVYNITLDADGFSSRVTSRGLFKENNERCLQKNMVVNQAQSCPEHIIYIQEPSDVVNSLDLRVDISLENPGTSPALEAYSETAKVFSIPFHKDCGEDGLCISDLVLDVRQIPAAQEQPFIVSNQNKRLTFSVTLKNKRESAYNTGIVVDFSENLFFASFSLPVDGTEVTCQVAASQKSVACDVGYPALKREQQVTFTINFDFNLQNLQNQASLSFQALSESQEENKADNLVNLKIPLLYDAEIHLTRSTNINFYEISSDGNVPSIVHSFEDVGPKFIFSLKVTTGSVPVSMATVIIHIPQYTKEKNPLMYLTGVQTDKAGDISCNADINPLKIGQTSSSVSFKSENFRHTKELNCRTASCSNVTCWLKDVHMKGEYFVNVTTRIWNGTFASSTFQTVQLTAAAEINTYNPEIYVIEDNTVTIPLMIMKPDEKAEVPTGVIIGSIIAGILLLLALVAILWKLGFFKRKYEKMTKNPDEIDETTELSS
Sequence of UniProt P17301 (P05556 21-798, chain 2 of 2, further chain): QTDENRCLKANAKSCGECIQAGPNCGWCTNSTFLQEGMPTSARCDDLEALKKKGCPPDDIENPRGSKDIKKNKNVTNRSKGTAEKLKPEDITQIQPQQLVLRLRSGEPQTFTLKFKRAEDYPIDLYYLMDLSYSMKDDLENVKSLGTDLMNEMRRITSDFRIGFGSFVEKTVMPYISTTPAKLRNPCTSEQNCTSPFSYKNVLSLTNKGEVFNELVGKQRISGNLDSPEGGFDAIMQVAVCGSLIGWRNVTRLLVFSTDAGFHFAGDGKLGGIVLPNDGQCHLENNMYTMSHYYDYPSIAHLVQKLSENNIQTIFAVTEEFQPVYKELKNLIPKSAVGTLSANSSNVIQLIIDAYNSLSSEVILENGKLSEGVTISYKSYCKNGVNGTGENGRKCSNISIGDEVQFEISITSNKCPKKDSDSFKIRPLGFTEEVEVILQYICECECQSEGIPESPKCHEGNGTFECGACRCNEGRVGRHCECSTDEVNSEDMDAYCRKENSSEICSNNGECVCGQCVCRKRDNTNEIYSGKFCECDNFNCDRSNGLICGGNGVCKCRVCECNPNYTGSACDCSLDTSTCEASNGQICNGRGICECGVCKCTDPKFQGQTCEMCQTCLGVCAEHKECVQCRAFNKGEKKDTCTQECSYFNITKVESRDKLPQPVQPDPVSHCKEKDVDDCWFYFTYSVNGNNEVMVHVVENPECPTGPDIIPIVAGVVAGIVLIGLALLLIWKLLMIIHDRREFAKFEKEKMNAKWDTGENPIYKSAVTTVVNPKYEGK

Rhinocetin (heterodimeric snaclec from the venom of Bitis gabonica rhinoceros) (complex)
percent inhibition of 6F1 antibody binding at 50 μg/ml: 65% | percent inhibition of 6F1 antibody binding at 100 μg/ml: 90%
